“And” between values parts separate entries of the source, which are not always exact repeats. Identical values can stand only once.
B1: Recombinant Fas-Fc (Fc fusion, UniProt P25445 26-173, looked up)
chain: QVTDINSKGLELRKTVTTVETQNLEGLHHDGQFCHKPCPPGERKARDCTVNGDEPDCVPCQEGKEYTDKAHFSSKCRRCRLCDEGHGLEVEINCTRTQNTKCRCKPNFFCNSTVCEHCDPCTKCEHGIIKECTLTSNTKCKEEGSRSN
notes: Fas (CD95/APO-1) part of a bought recombinant Fas-Fc; The reagents section also names a laboratory-made Fas-Fc purified on protein A; the SPR methods name the R&D Systems protein; source: bought: R&D Systems
B2: cleaved FasL (cFasL), spontaneously cleaved membrane FasL (ligand, human, UniProt P48023 127-281, looked up)
chain: LEKQIGHPSPPPEKKELRKVAHLTGKSNSRSMPLEWEDTYGIVLLSGVKYKKGGLVINETGLYFVYSKVYFRGQSCNNLPLSHKVYMRNSKYPQDLVMMEGKMMSYCTTGQMWARSSYLGAVFNLTSADHLYVNVSELSLVNFEESQTFFGLYKL
notes: human FasL, soluble product of the metalloprotease cleavage between amino acids 126 and 127; the C-terminal end 281 is the one printed for the extracellular domain; Homotrimer by gel filtration; also called sFasL; metalloprotease-cleaved FasL; source: COS cells transfected with wild-type FasL, supernatant (spontaneously cleaved by a metalloprotease); for SPR in serum-free medium, concentrated 100 …

Columns and labels:
Recombinant Fas-Fc = target: B1; test: SPR; BIAcore 3000; Fas-Fc covalently coupled to a CM5 flow cell (2,000 RU); FasL constructs as concentrated, dialysed COS supernatants flowed over (0.2-100 nM IgFasL, 0.2-44 nM cFasL, 0.2-37.5 nM D2FasL, 0.25-8 nM D1IgD2FasL) in Hepes-buffered saline, 30 ul/min; 5 min association, 11 min dissociation; BIAeval 4.1; details: one partner purified
[1] = target: the molecule itself; test: SEC; gel filtration on Sephacryl S-200-HR and S-300-HR columns; concentrated COS supernatants, eluted in PBS at 0.3 ml/min; FasL in the fractions found by ELISA; size of the oligomer of the FasL construct
[2] = target: B2; test: SPR; BIAcore 3000; Fas-Fc covalently coupled to a CM5 flow cell (2,000 RU); FasL constructs as concentrated, dialysed COS supernatants flowed over (0.2-100 nM IgFasL, 0.2-44 nM cFasL, 0.2-37.5 nM D2FasL, 0.25-8 nM D1IgD2FasL) in Hepes-buffered saline, 30 ul/min; 5 min association, 11 min dissociation; BIAeval 4.1; details: one partner purified

Row | Binder | Kd (Recombinant Fas-Fc) [nM] | koff (Recombinant Fas-Fc) [s⁻¹] | kon (Recombinant Fas-Fc) [M⁻¹ s⁻¹] | stoichiometry N [1] | Kd [2] [nM] | koff [2] [s⁻¹] | kon [2] [M⁻¹ s⁻¹]
1 | D1IgD2FasL (D1IgD2 modules of gp190 fused to the extracellular domain of hFasL) (ligand, UniProt P42702 49-542, looked up, extracellular domain of human FasL (hFasL), amino acids 108 to 281; source: COS cells, transiently transfected (pED4 vector), supernatant; for SPR in Opti-MEM, concentrated 100 times, dialysed against PBS) APHDLKCVTNNLQVWNCSWKAPSGTGRGTDYEVCIENRSRSCYQLEKTSIKIPALSHGDYEITINSLHDFGSSTSKFTLNEQNVSLIPDTPEILNLSADFSTSTLYLKWNDRGSVFPHRSNVIWEIKVLRKESMELVKLVTHNTTLNGKDTLHHWSWASDMPLECAIHFVEIRCYIDNLHFSGLEEWSDWSPVKNISWIPDSQTKVFPQDKVILVGSDITFCCVSQEKVLSALIGHTNCPLIHLDGENVAIKIRNISVSASSGTNVVFTTEDNIFGTVIFAGYPPDTPQQLNCETHDLKEIICSWNPGRVTALVGPRATSYTLVESFSGKYVRLKRAEAPTNESYQLLFQMLPNQEIYNFTLNAHNPLGRSQSTILVNITEKVYPHTPTSFKVKDINSTAVKLSWHLPGNFAKINFLCEIEIKKSNSVQEQRNVTIKGVENSSYLVALDKLNPYTLYTFRIRCSTETFWKWSKWSNKKQHLTTEASPSKGPDTWQKELAELRESTSQMHTASSLEKQIGHPSPPPEKKELRKVAHLTGKSNSRSMPLEWEDTYGIVLLSGVKYKKGGLVINETGLYFVYSKVYFRGQSCNNLPLSHKVYMRNSKYPQDLVMMEGKMMSYCTTGQMWARSSYLGAVFNLTSADHLYVNVSELSLVNFEESQTFFGLYKL | 25.6 | 0.0033 | 130000 | 6 |  |  | 
2 | B1 |  |  |  |  | 69.4 | 0.0059 | 84000
3 | B2 |  |  |  | 3 |  |  | 
4 | D2FasL (D2 module of gp190 fused to the extracellular domain of hFasL) (ligand, UniProt P42702 329-542, looked up, extracellular domain of human FasL (hFasL), amino acids 108 to 281; source: COS cells, transiently transfected (pED4 vector), supernatant; for SPR in Opti-MEM, concentrated 100 times, dialysed against PBS) AGYPPDTPQQLNCETHDLKEIICSWNPGRVTALVGPRATSYTLVESFSGKYVRLKRAEAPTNESYQLLFQMLPNQEIYNFTLNAHNPLGRSQSTILVNITEKVYPHTPTSFKVKDINSTAVKLSWHLPGNFAKINFLCEIEIKKSNSVQEQRNVTIKGVENSSYLVALDKLNPYTLYTFRIRCSTETFWKWSKWSNKKQHLTTEASPSKGPDTWQKELAELRESTSQMHTASSLEKQIGHPSPPPEKKELRKVAHLTGKSNSRSMPLEWEDTYGIVLLSGVKYKKGGLVINETGLYFVYSKVYFRGQSCNNLPLSHKVYMRNSKYPQDLVMMEGKMMSYCTTGQMWARSSYLGAVFNLTSADHLYVNVSELSLVNFEESQTFFGLYKL | 38.5 | 0.006 | 160000 | 6 |  |  | 
5 | pFasL (polymeric soluble FasL; IgFasL chimera: Ig module of gp190 fused to the extracellular domain of hFasL) (ligand, UniProt P42702 246-328, looked up, Ig-like (Ig) module of the LIF receptor gp190, amino acids 246 to 328; extracellular domain of human FasL (hFasL), amino acids 108 to 281; source: COS cells, transiently transfected (pED4 vector), supernatant; for SPR in Opti-MEM, concentrated 100 times, dialysed against PBS; copies: 12) WIPDSQTKVFPQDKVILVGSDITFCCVSQEKVLSALIGHTNCPLIHLDGENVAIKIRNISVSASSGTNVVFTTEDNIFGTVIFQKELAELRESTSQMHTASSLEKQIGHPSPPPEKKELRKVAHLTGKSNSRSMPLEWEDTYGIVLLSGVKYKKGGLVINETGLYFVYSKVYFRGQSCNNLPLSHKVYMRNSKYPQDLVMMEGKMMSYCTTGQMWARSSYLGAVFNLTSADHLYVNVSELSLVNFEESQTFFGLYKL | 11.6 | 0.00041 | 25000 | 12 and 6 |  |  | 

From paper PMC3541234, “Functional Characterization of a Chimeric Soluble Fas Ligand Polymer with In Vivo Anti-Tumor Activity” (PLoS ONE, 2013)
